Residue numbers refer to the chain shown, from its start.
T1: human TNFR2 expressed on cells (Expi293 cells stably expressing huTNFR2) (human, UniProt P20333 23-461)
T1 construct: whole, on cells; Also used here as the target of the Treg assay (native TNFR2 on human primary Treg cells); also called huTNFR2 expressed cells; Expi293-TNFR2 cells
T1 sequence (looked up): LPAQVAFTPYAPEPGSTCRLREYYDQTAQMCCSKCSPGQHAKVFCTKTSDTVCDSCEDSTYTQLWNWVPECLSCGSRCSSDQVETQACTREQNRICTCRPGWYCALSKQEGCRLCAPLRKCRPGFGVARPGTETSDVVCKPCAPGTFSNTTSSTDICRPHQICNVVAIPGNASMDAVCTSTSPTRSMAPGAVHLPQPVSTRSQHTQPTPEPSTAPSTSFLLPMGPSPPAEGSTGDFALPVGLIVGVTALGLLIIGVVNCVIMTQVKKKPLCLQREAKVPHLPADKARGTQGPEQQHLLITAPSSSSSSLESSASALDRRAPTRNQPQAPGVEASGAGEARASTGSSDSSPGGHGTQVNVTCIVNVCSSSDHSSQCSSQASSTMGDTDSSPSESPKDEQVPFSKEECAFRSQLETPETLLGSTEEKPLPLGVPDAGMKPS

T2: human TNFR2 extracellular domain with C-terminal 10×His tag (human, UniProt P20333 23-257)
T2 construct: also called huTNFR2-His; His-tag-huTNFR2
T2 sequence: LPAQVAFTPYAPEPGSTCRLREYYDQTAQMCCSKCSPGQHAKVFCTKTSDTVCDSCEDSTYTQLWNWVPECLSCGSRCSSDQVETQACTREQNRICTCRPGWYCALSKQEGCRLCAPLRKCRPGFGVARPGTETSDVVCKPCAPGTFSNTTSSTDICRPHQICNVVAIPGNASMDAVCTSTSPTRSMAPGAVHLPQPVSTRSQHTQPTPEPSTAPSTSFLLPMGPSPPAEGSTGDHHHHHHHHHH

T3: cynomolgus monkey TNFR2 extracellular domain with C-terminal 10×His tag (cynomolgus monkey, UniProt P20333 23-257 (human entry))
T3 construct: also called cynoTNFR2-His; His-tag-cynoTNFR2
T3 chain: T2 sequence with S16G, S36P, P117Q, N164H, E210A, S216G, M223V

T4: human TNFR2 extracellular domain fused to human IgG1 Fc (human, UniProt P20333 23-257)
T4 construct: also called TNFR2-huFc; huTNFR2; not shown: C-terminal human IgG1 Fc
T4 sequence: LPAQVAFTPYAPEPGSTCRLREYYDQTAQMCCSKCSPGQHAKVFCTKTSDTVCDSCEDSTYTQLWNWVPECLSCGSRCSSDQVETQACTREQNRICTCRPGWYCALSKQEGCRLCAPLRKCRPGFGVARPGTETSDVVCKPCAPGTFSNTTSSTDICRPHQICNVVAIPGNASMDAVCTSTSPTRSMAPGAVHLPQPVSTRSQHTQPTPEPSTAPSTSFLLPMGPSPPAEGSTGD

B1: SB1901-72 humanized anti-TNFR2 antibody (antibody, V domains shown)
VH: QVQLVQSGAEVKKPGASVKVSCKASGYTFTDDYIDWVRQATGQGLEWIGEIYPGSGNTYYNEKFKGRVTMTRDKSISTAYMELSSLRSEDTAVYYCARSQVYGKIAMDHWGQGTLVTVSS
VL: DIVMTQSPDSLAVSLGERATINCRASESVDNSGNSFMHWYQQKPGQPPKLLIYRASNLESGVPDRFSGSGSRTDFTLTISSLQAEDVAVYYCQQSKEDPYTFGQGTKVEIK
B2: 102E4 chimeric anti-TNFR2 antibody (antibody, V domains shown)
VH: EVLLQQSGAELVRPGASVKLSCTASGFNIKDDFIHWVQQRPEQGLEWIGRINPSNANTEYAPKFQDKATITTDTSSNTAYLQLSSLTSEDTAVYYCTRNDGYYDGLFYWGQGTTLTVSS
VL: DIVMTQSHKFMSSSVGDRVSITCKASQDVGTAVAWYQQKPGQSPKLLIYWASTRHTGVPDRFTGSGSGTDFTLTISNVQSEDLADYFCQQYSSYPFTFGSGTKLEIK
notes: Chimeric: mouse variable domains with human constant regions, made as recombinant IgG1

Experiments:
[1] = target: T1, human TNFR2 expressed on cells (Expi293 …); assay: flow cytometry on Expi293 cells stably expressing huTNFR2, y axis TNFR2 binding (MFI)
Protocol: (§1) The coding sequence of huTNFR2 (Uniprot, P20333) was cloned into a lentiviral vector and the virus was packaged according to the instruction of the virus packaging kit (Lenti-X™ Packaging Single Shots, Cat #631275, Takada). The Expi293 cells were transduced with the recombinant virus and selected by puromycin. The cell line stably expressing huTNFR2 was incubated with anti-TNFR2 antibodies in PBS with 0.5% BSA, 1 mM EDTA, and 0.1% sodium azide (FACS buffer) for 30 minutes at 4° C. The cells were washed, and then incubated with 10 nM phycoerythrin (PE) conjugated anti-Human Fe Ab (Biolegend, cat #409304) for 20 minutes at 4° C. Cells were washed and then […] by flow cytometry with Attune (ThermoFisher Scientific). Data were analyzed with FlowJo software. Antibody binding is represented as median fluorescence intensity (MFI).
FACS based binding and blocking assays of humanized antibodies were performed as described above.

[2] = target: T2, human TNFR2 extracellular domain with …; assay: BLI (Octet RED96), AHC capture, His-tag-huTNFR2 in solution; antibody sample after 4 weeks at 40 °C
Protocol: (§2) The following kinetic assay was performed using anti-human IgG Fc capture (AHC) biosensors (ForteBio) in kinetics buffer (PBS, 0.1% Tween-20 and 1% bovine serum albumin): (a) antibody sample (2 μg/mL) for 300 see, (b) baseline for 120 see, (c) association with His-tag-huTNFR2 (2.5, 0.5 and 0 μg/mL) for 420 sec and (d) dissociation for 1200 sec. Data fitting and analysis was performed with Octet data analysis software 8.0 (ForteBio) using a 1:1 binding model after Savitzky-Golay filtering.
(§3) The binding kinetic data were presented in Table 18, showing that the binding with human-TNFR2 was not affected under the accelerated thermal stressed condition (4 weeks at […]

[3] = target: T2, human TNFR2 extracellular domain with …; assay: BLI (Octet RED96), AHC capture, His-tag-huTNFR2 in solution; antibody sample after 2 weeks at 40 °C
Protocol: as §2

[4] = target: T2, human TNFR2 extracellular domain with …; assay: BLI (Octet RED96), AHC capture, His-tag-huTNFR2 in solution; antibody sample at week 0 of storage at 40 °C
Protocol: as §2, §3

[5] = target: T2, human TNFR2 extracellular domain with …; assay: BLI (Octet RED96), antibody captured on AHC biosensor, His-tag-huTNFR2 in solution, 1:1 model
Protocol: as §2, with “antibody” for “antibody sample”, “sec,” for “see,”, “filtering. The dissociation constant (Kd) was calculated as the ratio of Koff/Kon.” for “filtering.”

[6] = target: T3, cynomolgus monkey TNFR2 extracellular …; assay: ELISA, plate coated with His-tagged TNFR2 ECD, serial dilution of chimeric IgG; ELISA; cynoTNFR2-His coated on plate at 1 µg/mL, bivalent IgG in solution
Protocol: (§4) TNFR2 binding of purified recombinant chimeric antibodies: The huTNFR2, cynoTNFR2 antigen binding ELISA was performed on the purified recombinant chimeric antibodies. Briefly, 384-well, clear, flat bottom, high binding plates (VWR, cat #29444-096) were coated overnight at 4° C. with 1 μg/mL of huTNFR2 or cynomolgus monkey TNFR2-His in PBS. After removing the coating solution, the plates were blocked by adding blocking buffer and incubated at room temperature for 1 hour. Plates were then washed 3 times with wash buffer. Serial dilution of purified antibodies in PBS was added to individual well followed by incubation at room temperature for 1 hour. Plates were washed 3 times with wash buffer. Then 50 μL/well of goat anti hu Kappa —AP (Southern Biotech, cat #2061-04) at 1:3000 dilution or goat anti human IgG Fc-AP at 1:3000 dilution in ELISA diluent was added, incubated at room temperature for 1 hour, washed 5 times with wash buffer and developed for 30 minutes with 50 μL/well of pNPP substrate. Plates were analyzed with a Bio-TEK at 405 nm. The chimeric TNFR2 antibodies were tested positive for binding to huTNFR2 and cynoTNFR2. The TNFR2 binding EC50 values are shown in Table 6, FIG. 1A (for huTNFR2) and FIG. 1B (for cynoTNFR2).

[7] = target: T2, human TNFR2 extracellular domain with …; assay: BLI (Octet RED96), antibody captured on AHC biosensor, His-tagged TNFR2 in solution, 1:1 model
Protocol: as §2, with “antibody” for “antibody sample”, “sec,” for “see,”, “His-tag-huTNFR2 (2.5, 0.5 and 0 μg/mL) and His-tag-cynoTNFR2” for “His-tag-huTNFR2”

[8] = target: T4, human TNFR2 extracellular domain fused …; assay: blocking ELISA: antibody pre-mixed with huTNFR2, binding of huTNFR2 to coated human TNFα read out
Protocol: 96-well round bottom ELISA plates were coated overnight at 4° C. with 50 μL/well of 0.5 μg/mL human TNFα recombinant protein (R&D system, Cat #210-TA-100) in coating buffer. After removing the coating solution, blocking buffer was added into the plates followed by incubation at room temperature for 1 hour in order to block unspecific binding. During the blocking period, hybridoma antibodies samples were mixed with 0.5 μg/mL TNFR2-huFc at a 1:1 volume ratio and incubated at room temperature for another 1.5 hours. Then 50 μL/well of antigen-antibody mix solution was transferred into TNFα coated wells and incubated at room temperature for 1.5 hours. Plates were then washed 5 times with wash buffer. Then, 50 μL/well of goats anti-human IgG Fc-AP (Southern Biotech, cat #2014-04) at 1:2000 dilution in assay buffer was added, incubated at room temperature for 1 hour, washed 4 times with wash buffer and developed for 30 minutes with 50 μL/well of pNPP substrate. Plates were analyzed with a Synergy HT (Bio-TEK) at 405 nm. Parental hybridomas with the desired human and cynoTNFR2 binding as well as the ability to block human TNFR2 and human TNFα binding were prioritized for subcloning and further characterization. Subcloning was carried out with limited dilution and visual inspection was performed to ensure clonality. Hybridoma subclones were screened with the same binding and blocking assays and selected positive hits were cryopreserved.
TNFR2 blocking by purified recombinant chimeric antibodies: Human TNFR2 blocking ELISA was performed on purified recombinant chimeric antibodies following the same protocol as described above, except that 50 μL/well of serial dilution of purified antibodies (starting at 10 μg/mL, 1:3 dilution) in assay buffer was added into the reaction. The blocking IC₅₀ value represents the antibody concentration that inhibited 50% of huTNFR2 or cynoTNFR2 binding to coated human TNFα or cynomolgus monkey TNFα.

[9] = target: T1, human TNFR2 expressed on cells (Expi293 …); assay: flow cytometry on Expi293 cells stably expressing huTNFR2
Protocol: as §1
As shown by the results in Table 9 and FIG. 4A, the anti-TNFR2 antibodies, 51B5, 102E4, 85G8.4, 29G3, 11C1, and 15H10 bind to Expi293-TNFR2 cells dose-dependently and potently.

[10] = target: T2, human TNFR2 extracellular domain with …; assay: ELISA, plate coated with His-tagged TNFR2 ECD, serial dilution of chimeric IgG
Protocol: as §4

| Binder | EC50 (read off the curve) [1] [nM] | Kd [2] [nM] | koff [2] [s⁻¹] | kon [2] [M⁻¹ s⁻¹] | Kd [3] [nM] | koff [3] [s⁻¹] | kon [3] [M⁻¹ s⁻¹] | Kd [4] [nM] | koff [4] [s⁻¹] | kon [4] [M⁻¹ s⁻¹] | Kd [5] [nM] | koff [5] [s⁻¹] | kon [5] [M⁻¹ s⁻¹] | EC50 [6] [nM] | Kd [7] [nM] | koff [7] [s⁻¹] | kon [7] [M⁻¹ s⁻¹] | IC50 [8] [nM] | EC50 [9] [nM] | EC50 [10] [nM] |
| --- | --- | --- | --- | --- | --- | --- | --- | --- | --- | --- | --- | --- | --- | --- | --- | --- | --- | --- | --- | --- |
| B1 | ~0.6 | 1.06 | 0.000527 | 497000 | 1.35 | 0.000471 | 348000 | 1.68 | 0.000495 | 295000 | 1.11 | 0.000456 | 412000 |  |  |  |  |  |  |  |
| B2 |  |  |  |  |  |  |  |  |  |  |  |  |  | 0.338 | 1.59 | 0.000696 | 439000 | 1.13 | 0.819 | 0.04 |

— patent publication US20250011448A1 (STAIDSON BIOPHARMA, published 2025)
